Data as given in US6465228B1, “Levodione reductase” (Roche Vitamins, Inc., priority 1999, dated 2002).

Columns and labels:
[1] = substrate: C[C@@H]1C[C@@H](O)CC(C)(C)C1=O; assay: Michaelis constant (Km) and maximum velocity (Vmax); format: biochemical, Corynebacterium aquaticum AKU611; conditions: other: compound as substrate; pH 7.0; 37.0 °C
Procedure: (§1) A basal reaction mixture having a total volume of 500 μl includes 100 μl of 1 M potassium phosphate buffer (pH 7.0), 20 μl of 8 mM NADH in 0.2 mM KOH, 10-40 μl of the enzyme solution (i.e., levodione reductase), and water up to a total of 500 μl . This reaction mixture was incubated for 1 minute at 37 ° C. Then, 2 μl of 0.5 M levodione solution were added to give a final concentration of 2 mM, and the whole mixture was incubated for 1 minute at 37 ° C. The levodione reductase enzyme activity was monitored with the decrease of the absorbance of NADH at 340 nm.
(§2) The Km and Vmax values of the enzyme were measured using levodione and actinol as the substrates. The basic enzyme assay method is the same as described under 1, but the substrate and the enzyme concentrations were varied.
(§3) The Km and Vmax values were calculated on the basis of the known Michaelis-Menten equation. Km is the concentration of the substrate that gives 50% of the Vmax of the enzyme reaction.

[2] = substrate: C[C@@H]1CC(=O)CC(C)(C)C1=O; assay: as above; format: biochemical, Corynebacterium aquaticum AKU611; conditions: other: compound as substrate; pH 7.0; 37.0 °C
Procedure: as §1, §2, §3

B1: levodione reductase (Leifsonia aquatica) (protein)
chain: MTATSSPTTRFTDRVVLITGGGSGLGRATAVRLAAEGAKLSLVDVSSEGLEASKAAVLETAPDAEVLTTVADVSDEAQVEAYVTATTERFGRIDGFFNNAGIEGKQNPTESFTAAEFDKVVSINLRGVFLGLEKVLKIMREQGSGMVVNTASVGGIRGIGNQSGYAAAKHGVVGLTRNSAVEYGRYGIRINAIAPGAIWTPMVENSMKQLDPENPRKAAEEFIQVNPSKRYGEAPEIAAVVAFLLSDDASYVNATVVPIDGGQSAAY
notes: The LR is isolated and purified from the cell-free extract of disrupted cells; made in house; host or cells: Corynebacterium aquaticum AKU611 (FERM BP-6448); This is the natural producer and there was no recombinant expression; The enzyme was purified by ammonium sulfate precipitation and DEAE-Sephacel, alkyl Superose and MONO Q chromatography
Km [1]: 1.36 mM
Vmax [1]: 15.91 unit/mg
Km [2]: 8.5 mM
Vmax [2]: 101.26 unit/mg
